Experimental findings from the supplement of paper PMC12042874 are described below.

± gives the uncertainty stated by the source.

The nature of the series: amyloid nucleation score (Sup35N fusion, yeast selection) (log enrichment); library NNK3; higher = more nucleation; inactive = no reads after selection. In outline: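 Using DiMSum, nucleation scores were taken as the log enrichment of output over input reads, centred on the mode score of non-aggregating sequences. The input and output reads came from Illumina sequencing of plasmid inserts, with sequences under 100 input reads excluded. The yeast were psi-negative, expressed Sup35N fused to peptides of 20 random codons, were induced with 100 μM copper sulfate for 24 hours, and were grown 7 days at 30°C on medium lacking adenine and uracil.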

On to NWRLCFNRGRCRYMIMLQKF, for which the amyloid nucleation score result is “inactive”.

For the substance LNLVVRHFPTNR, the amyloid nucleation score result is “inactive”.

On to DSFAGVRLGVHASNILIHGQ, for which the amyloid nucleation score entry was “inactive”.

AISPNASTWTACTFYCMDSG: the amyloid nucleation score was -0.027 ± 0.26.

Take RSWIGTKGPL: the amyloid nucleation score result is “inactive”.

On to ALKDGIFFFHA, for which the amyloid nucleation score entry is “inactive”.

With FVRANYIWWNSWYLECYIGR, the amyloid nucleation score result is “inactive”.

For the substance FSCDIMRPTKLGYSFDGLLL, the amyloid nucleation score result was “inactive”.

Regarding YKNSWLKW, the amyloid nucleation score result is “inactive”.

Consider SCGLLWCD, for which the amyloid nucleation score was -0.43 ± 1.2.

Turning to TLMGLESVSVYFSMGFLSVY, the amyloid nucleation score result is “inactive”.

YGVYISIFILCWNGGNNDDC: the amyloid nucleation score entry was “inactive”.

As for LLHVVFNTFLYRLEPEYTSK, the amyloid nucleation score entry was “inactive”.

Turning to ILCQIDAKDPKPLMTRGLRL, the amyloid nucleation score result was “inactive”.

In the case of RLLDGMTSVLC, the amyloid nucleation score entry is “inactive”.

As for GSMSSCLVKRLNC, the amyloid nucleation score entry was “inactive”.

As for RSILVFHSDRLKYGYLMIDV, the amyloid nucleation score result was “inactive”.

For the substance PMMVWFSNFLYVASMGPDSF, the amyloid nucleation score result was “inactive”.

Turning to LHTMGMSVGGMAMNKIDCPN, the amyloid nucleation score result was “inactive”.

Regarding HISYNHIGEYVKKSDFECSN, the amyloid nucleation score result was “inactive”.

As for LFANTYVV, the amyloid nucleation score entry was “inactive”.

Substance RYSYLGVCIKMSRKVKCVVT came in with an amyloid nucleation score of 0.086 ± 0.66.

As to YSFCVSVATEQLKHLSSLWH, the amyloid nucleation score entry is “inactive”.

On to KNDGKEF, for which the amyloid nucleation score result was “inactive”.

On to SPRSFIILVGNGYISCSSVE, for which the amyloid nucleation score worked out at 2.56 ± 0.073.

Regarding VECHPCSHFDLHNGRIRDNR, the amyloid nucleation score result was “inactive”.

For REASCGIDRMIRRCTERLSC, the amyloid nucleation score entry was “inactive”.

Regarding CVPNWVVCRLSIYKF, the amyloid nucleation score result was “inactive”.

On to VIFISILPLRKCSDKWEDNN, for which the amyloid nucleation score entry is “inactive”.

For the substance CFNGRCARLYISIIQVIELS, the amyloid nucleation score result was “inactive”.

Consider FSIIKFYWAEYWARRGEIVR, for which the amyloid nucleation score result was “inactive”.

Take LFRTDFMQTLLCHTIQLLYP: the amyloid nucleation score entry is “inactive”.

Consider PNISGGDAIEGLFFFRVGRE, for which the amyloid nucleation score stood at 1.04 ± 0.14.

Turning to FPFLSSSSDSSEMFILKLFD, the amyloid nucleation score entry was “inactive”.

With RGNDLIVCCGDRMCFCNALS, the amyloid nucleation score entry was “inactive”.

Substance SIIIIISCFGVQNVWFAEMM registered an amyloid nucleation score of 0.405 ± 0.3.

As to YQRGVRFRSHWMRSGKWDHF, the amyloid nucleation score entry was “inactive”.

SYSSIVCLGIDYRQAFWCIR: the amyloid nucleation score was found to be 1.8 ± 0.077.

The substance VISMRVTGVVHRFWNEVYRD showed an amyloid nucleation score of 1.22 ± 0.1.

Take YVILGIRGKGWVFYQRAP: the amyloid nucleation score entry was “inactive”.

The substance RLTTNTIVKDSISRFRN displayed an amyloid nucleation score of 0.183 ± 0.29.

HSDMLDYVSMVFFMVIRAGM: the amyloid nucleation score entry is “inactive”.

As for SLVYACSSEL, the amyloid nucleation score entry is “inactive”.

In the case of AYKYVTVCLVDSSVLTSNRG, the amyloid nucleation score entry was “inactive”.

Turning to SGVWFVGRVCELHSWFINLS, the amyloid nucleation score result is “inactive”.

As to KHVNLWSVGWFLGFLVWSRA, the amyloid nucleation score entry is “inactive”.

On to KLVQLYTLKFFGLNCSKSVI, for which the amyloid nucleation score result is “inactive”.

Turning to FSVANGHRVM, the amyloid nucleation score entry was “inactive”.

CVFYCSKLWIRYNNVMMISS: the amyloid nucleation score stood at 0.831 ± 0.1.

In the case of FGVSFKYFCVQEQLAKDSVA, the amyloid nucleation score result was “inactive”.

Take HGPRLLTSKVRFWRKTLRST: the amyloid nucleation score entry is “inactive”.

Turning to GRVSYCITRME, the amyloid nucleation score result is “inactive”.

As to PRLKFASYVMEMPLKFGEGI, the amyloid nucleation score entry is “inactive”.

For PLDVNGYMNVTSGRRMCARR, the amyloid nucleation score entry is “inactive”.

On to KVVVKEIQILVGSAGSKRMS, for which the amyloid nucleation score turned out to be 0.638 ± 0.25.

For the substance STRAVQIRKSRGFAGYPGN, the amyloid nucleation score entry is “inactive”.

Take RYKEFVGNSIRIPDTCLSCC: the amyloid nucleation score result is “inactive”.

Consider FSLRLPYFA, for which the amyloid nucleation score result is “inactive”.

Take VSFSSCTWSMQEERMLVSWG: the amyloid nucleation score result is “inactive”.

Consider IYISFWR, for which the amyloid nucleation score came out at 0.521 ± 0.2.

As to YVWLGDLMSVRCYYWVTW, the amyloid nucleation score result was “inactive”.

On to TGTSSKYVGEVLHSLVVWFA, for which the amyloid nucleation score was -0.575 ± 1.5.

With FHTLLLCSDVSSARWFADWF, the amyloid nucleation score result is “inactive”.

As to FYRFISAMFYDWDSWIICGN, the amyloid nucleation score was found to be 0.674 ± 0.12.

For NPMTHYHMIHRSQGNCLLRR, the amyloid nucleation score entry was “inactive”.

With KRCRFVVIFKSGIVTLWKLF, the amyloid nucleation score is 0.568 ± 0.42.

Regarding ADLGATAAINQKAWVGDQ, the amyloid nucleation score result is “inactive”.

In the case of KGGCW, the amyloid nucleation score entry is “inactive”.

Take GGKMMFFKIRFFC: the amyloid nucleation score result is “inactive”.

Take RGQRVSSVMRRTQVGDWNTP: the amyloid nucleation score result was “inactive”.

Take TTSLSIGGLIFRLVL: the amyloid nucleation score entry was “inactive”.

Consider RLLHCGRILWGFVNDLMIML, for which the amyloid nucleation score result was “inactive”.

Regarding RTWDYVLLGLLLLDYYRILA, the amyloid nucleation score result is “inactive”.

Consider FLYYLLMLVRVRCFEQVVIV, for which the amyloid nucleation score result was “inactive”.

With YAFLLYY, the amyloid nucleation score entry is “inactive”.

Take YYCEFGLFELKQTYCRLFWG: the amyloid nucleation score result is “inactive”.

TPHLSCNLRYG: the amyloid nucleation score entry is “inactive”.

The substance ILFGGRNGKWLVEPGLSRVL came in with an amyloid nucleation score of 0.84 ± 0.23.

For the substance FLYAFLPWRCVKNFFCSKVL, the amyloid nucleation score result is “inactive”.

As to NGYLACSPFS, the amyloid nucleation score entry was “inactive”.

With RYLPRTSFPTIL, the amyloid nucleation score entry was “inactive”.

For SSLWSNK, the amyloid nucleation score result is “inactive”.

As to NECLVDTA, the amyloid nucleation score result was “inactive”.

As to APIVKL, the amyloid nucleation score entry is “inactive”.

As for AGHSEA, the amyloid nucleation score result was “inactive”.

VENLHNHYQYVFKNGMCDG yielded an amyloid nucleation score of 0.263 ± 0.22.

As for KFEGLF, the amyloid nucleation score result is “inactive”.

Turning to KSQMCNMMRRFYLRCIDLRL, the amyloid nucleation score result was “inactive”.

For LKVRLALLCRSEQRSPSTEV, the amyloid nucleation score result was “inactive”.

Consider EKCWFQVCCTRSLGKSGIIC, for which the amyloid nucleation score entry was “inactive”.

Regarding RLTARLINGMDY, the amyloid nucleation score was 1.27 ± 0.1.

Regarding TVPVVREVLRLRVLRIFGVG, the amyloid nucleation score result is “inactive”.

Regarding VWVLHRRRSKYMQVTVWLDL, the amyloid nucleation score result is “inactive”.

Take WDDEFVWSGINN: the amyloid nucleation score entry is “inactive”.

In turn, TIHIHFVGHDVCNRVVGVHH displayed an amyloid nucleation score of 1.24 ± 0.18.

In the case of YLVFNQY, the amyloid nucleation score stood at 1.17 ± 0.086.

With SRITNHDD, the amyloid nucleation score result was “inactive”.

For the substance LIWIVVGLSCYSTRL, the amyloid nucleation score was found to be 1.09 ± 0.13.

SLWPSRNCVDEEVFDFSDKS: the amyloid nucleation score entry is “inactive”.

As for RWTNNRSEIGAPYGWPTAS, the amyloid nucleation score entry was “inactive”.

As to SLFLLFLWYGINDTYLVYFV, the amyloid nucleation score entry is “inactive”.

In the case of YSRSTWVRIWFLLVSLLPVG, the amyloid nucleation score result was “inactive”.

Take SPVVIRFTLLIKCRWLVVWI: the amyloid nucleation score result is “inactive”.

Take SNMSMMSYYAGRDPRPVSFL: the amyloid nucleation score result was “inactive”.

As to RVRVYYGQDWYYKMLLARTI, the amyloid nucleation score was -0.379 ± 0.84.

As for MVIAPGEKTNNLSSAHRWSN, the amyloid nucleation score entry was “inactive”.

Take RVHFVYIRWFYVRRDGWFSG: the amyloid nucleation score entry is “inactive”.

In the case of LPSLQTG, the amyloid nucleation score entry was “inactive”.

Turning to QLCLCRKATLMSPTRLLQRA, the amyloid nucleation score is -0.41 ± 1.9.

Turning to SQFDAYPCKMFHVYKNYP, the amyloid nucleation score entry is “inactive”.

With NKVCLDTSAVYYSFRDKDG, the amyloid nucleation score result is “inactive”.

As for HINDAYTCVMLYMGLTRWTI, the amyloid nucleation score entry was “inactive”.

For the substance CMMWNRGFT, the amyloid nucleation score entry is “inactive”.

Regarding CLGADCVAHFSYFHA, the amyloid nucleation score result was “inactive”.

As for THVSSGYRYEEILWWHSRGW, the amyloid nucleation score result was “inactive”.

As to MLWCLSVSIDFYGGDNRMLT, the amyloid nucleation score result is “inactive”.

Take PVEPI: the amyloid nucleation score entry is “inactive”.

With LNRAPTAQLSGDCRVGVQAT, the amyloid nucleation score entry is “inactive”.

Regarding WMFSRL, the amyloid nucleation score result was “inactive”.

With YNSYK, the amyloid nucleation score result was “inactive”.

In the case of ERKVCAG, the amyloid nucleation score result is “inactive”.

Turning to QILLFSFRVLFAGYRKIAST, the amyloid nucleation score result was “inactive”.

For the substance FFNIYLVRNSYQKTCAGLTR, the amyloid nucleation score came out at 2.05 ± 0.091.

Regarding PEVCEPLLGFLCFCPVNSVP, the amyloid nucleation score entry was “inactive”.

Regarding WFVRIIQLIT, the amyloid nucleation score entry was “inactive”.

CSPKPNKKAAMYKSAYNPGM gave an amyloid nucleation score of 0.629 ± 0.17.

In the case of GYRKMVTLYVDDGNHVYRFL, the amyloid nucleation score result is “inactive”.

Consider TCNNMYCWV, for which the amyloid nucleation score turned out to be 2.3 ± 0.075.

Turning to SFNMDYHMWIEQGSRWVFTT, the amyloid nucleation score result was “inactive”.

Take IVTYLLFDYHNPTRVSYYEC: the amyloid nucleation score entry is “inactive”.

For FVCLKNFIFNRYKADGD, the amyloid nucleation score was 1.17 ± 0.19.
